Assay: soluble fraction after stress (log2 fold change); higher = more stays soluble; pooled small domains, quantitative proteomics
Conditions: stress: 50 degC
Method in brief: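 Pooled custom libraries of small protein domains were measured in a high-throughput format, with quantitative proteomics as the read-out. Each library was stressed at 50°C. Aggregation propensity is given as the base-two logarithm of the fold change in how much of each protein stays soluble after the stress. Higher values mean a larger share of the protein remains in solution.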

| Sequence | soluble fraction (log2) |
| --- | --- |
| HMPELTERELEVLLLTARGLPSSEAARLLFITRRTVAAHLTSIYGKLGARNKTEAVLAALKRGIIMLDQIG | -4 |
| HMPSLGADIRALRKSRKMTLVALADALGRSVGWLSQVERDKSHATIADLGRMAEVLDVSISSFL | -0.27 |
| HMRVPTVIGMDEGTAKATLANASLKSNIVYESDETKENGKVLSQGIEQNKEVKAGTTVEIKVNKIE | -0.0202 |
| HMDHFLRRFQVEGLNLEKLLRLAAEREMDLLQVRRSGRRMTGLVAEKRLPELEELAAQGGWALRLGEY | -0.268 |
| HMGKPVTMELLIPYSQGSLVHRISEAGEVAKTEYQNDGTYMQVTFTPSAKDHALMQEVASYRI | 0.184 |
| HMFIEPPSLEELERRLRGRGTETDDVVDMRMRTALVELSQKMEYDYRLVNDDLDEATRQLVAYVNEIAEQ | 0.0568 |
| HMDREQLELYVGEVRVLQVGELRRIAIGNGKVLQASALDRGQLLLIPEAPGQSVLYLWTRDGTERHLSISV | -0.203 |
| HMTEALEFTVEDLRMAGLVNSSFSRRRRELFSEKLGIGYGNGKSLLKKLNGYGITREEFNGAIQSLSD | -0.747 |
| HMGQELTPVERTALDIAARDGKVSTRILAQEAGIGLRTASKTLAALAERGLLTWHGTSRRDPQQHYTS | 0.00201 |
| HMDQAEDVLSIPVDALMRGNQVYIKDDTVTEQQGPIPAGFKAVEVETGLISDSYVEIKSGLSEGDTVYVAE | 0.141 |
| HMSDLFKYSPYKTLTEEQYKITYQIIERLKTDLSNGIPRISIIDGGAGTGKSILGIFLLKLLVDAQN | 0.343 |
| HMIEGSSDWKPNMILDDGGDLTKIIHEEYQDLLDDIRGLSEETTTGVLRLYEMEKENSLAVPAINVND | 0.276 |
| HMEDPRVTEIKNLQQDLAKKFKPTQGPASASDAVERVTAITTVMTKVAALPEDLRSEAMQPGKKM | -0.322 |
| HMTAPELGIRQDGNTLVIFWPSSVTGYVLKSADAVDTPPASWTSVTHTTVGDEHRAEITPTGNSRFFRLV | -0.267 |
| HMPPPVERAIRKLGHDLSLARRRRRISQDSMAQRMGASVSTVRRIEKGDPRIPIHFIARAMMILGDLKAL | -0.0422 |
| HMPADHYEVLGIARDADAAEVKRAYRRLARESHPDANHGDSGAEVRFKAVSAAYEVLSDPERRARYDRFGH | -0.00211 |
| HMLQPQMKKFLNYESARNKMRPFGLSTRKEWRLFVDEGNRPADIPGDPYKKYKNKGWISWPHFLGK | -1.58 |
| HMDLTKLFDHDSEYGKSYVFGKITDEMIARAEQTLGYRMPASYIELLKVQNGGMISDELDESWLTTIYGIG | -0.24 |
| HMDSVEMFSPILGMNANMDLDTLTQTRDKLLEKYKDDEQLIGLVNKTYDYFNEILLKQFLIEELEKNE | -0.153 |
| HMQWGKVRRLPSGRYQASYVHKGTRYTAPETYTVQGRAHGWIESERRLIVTDTWTPPDTRPS | -1.78 |
| HMHNSPSPVATTILRFLQPVRAFVGDTEDMRTFGPFLREDVAMVPASQAKNLIRSGHAVEINP | -0.0361 |
| HMEDSSSILNRMRKLIALLNRASEAYYKENKEIISNFEYDRLYDELLGLESRSNTVLSGSPTYKV | -1.63 |
| HMGVNEGVNKLFKTIQETPGKRMPYYALATDVPEKTIERWLKQLREEGKIEFKGSAKTGGYFVIDK | 0.0649 |
| HMNPSRPASKEELLGLFEHLERALDAVTFFRPAEKKPVVVQTLRAMLTKASFTEQDIRTMRGVIAALEN | -1.5 |
| HMAKNYYEILGLKSDATLPEIKKAFKKLSKKFHPDKNRDDDGYFESMFKSINEAYQVLIDEDKRATFDSHH | -0.59 |

| Sequence | soluble fraction (log2) |
| --- | --- |
| HMNSEERVLDTASKWLVKLDEGLDESEAQVLKVWLATPLHRDTFLEMVALWDKMSVLNELADIV | -1.78 |
| HMELDFNSVYRQLNHEQKQAYQSIKSVLEQKISGSELDKKLKQAQQAFVAKFKENPNFEVPK | 0.31 |
| HMISRKIKELRLSHDLTQKDLADYLNLTPKMVSFYELGQRVPPSDIILKLAEKFHVSTDYLLGNEDRP | -0.0279 |
| HMTNSAGIERFLASGAIDGVGPAMARRIVEHFGTEALRIIESVPHRLREISGIGPKTAEKIASSYMRQ | -0.689 |
| HMGTHVVQEGEYLDLIIEKTIPGSPIRKDLLRKAFVKLNPSAFGGRGNPNYIFARKKLKVPSVEDLKAVIF | -0.0708 |
| HMDRADIDAVDAEWVRATMERLGLRAKHIESHTGISKSTLSILLNGHRPLTRWHKIAFYYLFKHIEF | -2.68 |
| HMDSLEIEEPITVKSLSAASGLKISDIIRKLMQEGIMATANQVIDREQAEAVLIDYNVDLVVKR | -0.248 |
| HMRSTIYEFTVPPGQLESIRLDVYITSFVENATRSKVQEAIKQGYVWVNGKHEKASYTMLPGDKIYIELPI | -1.79 |
| HMDQHPYGEDSFRGDNPPAGFDIKGNEDSMKFHEPSSPWYGRTIAEVWFRSAAAAEAAGFVNAV | -0.113 |
| HMPQFDRQAFGQRLRLLRDYREMTQQQVANFLNVDRSTYSYYENGKTEPSITVLMRMAELFSVTLDSLLNM | -2.83 |
| HMQRAEQLPAELAAVFRAETEAWGFFERQPPGYQRVAIHWVASAKQEATRLRRLAKLIEESAAGRR | -1.7 |
| HMLPNLWVMGPGDHLWRVAEVAMTKHLGRPVANHEIDGYWRRLVALNRESLIDPDNPDLVFAGQVIELPPF | -2.32 |
| HMAEVDDESIKLYDGGYQSNTTKSRLNALLSEFGYDTEHVFQKQFEWFISIFDLTEKAMRTVPFSNGMRL | -0.0834 |
| HMVMRHTVEHDAELLAVLRLMYPASSSTKLRKMLTQGRVLVNDDVVHRAKHGVASGDTVDVIVRQRAE | -1.03 |
| HMDVNAQAGYDKLQSNQLDGARHDYEQALKTDPNNVDTLLALAAIAQRQGRSADADGYRQRAIDAD | -0.124 |
| HMSNLLKNILDVLEKEGPLKARKIALLLDSTRTTITHTTINSELYKALDLEGLTKNEQNIWSYVT | 0.00627 |
| HMGMFNENLRFLRQKRQMSQQAFASILGIPRTTYSEYEKGNTEPNLKLLIRLSELLDVSLDNLISDDLTHN | -2.44 |
| HMQADEENPKYPVITDGVIQLEVLESIDKTEEWLVERLAKDGYNNVSEIFIAEYENGNLSIVT | 0.148 |
| HMKTNQINVSGLSKEKNFEVLESLDVYKFYNLFFLNKIKIDQLINSYNHIDNYSVFKKYPSSLIVKLSE | 0.0996 |
| HMRTANREKRIEASVKMMKAGYPVGYIIARVFMYEGWEEDYRQLLIYLSEKIPKDVSNPITFEVIS | -0.296 |
| HMAQRAADEARTHEILGLLRQARAALDHGGTARAARLRASIAEKLPAAPALPAWFARQLEQVDSQLAELQD | -0.432 |
| HMQASISVDEAKSIALNYAKFTADQVVYTKSELDYDDGRAEYEIEFYAGGKEYSFTIDAVSGTVLEMEI | -1.7 |
| HMQRSVNYSELHEIKERVFDALYSSPMSMPDLLAWLKGDEEHTISVIRLMQDNGDIEMGEDGRLAVV | -0.275 |
| HMQELNDQQRLAILNEWNNRATNPPSLLELVRVAFPDAEGADGRSWHGKKVKEFLSTRQIKARAS | 0.119 |
| HMRGLLSQREHDVLDLVARGFSYGEIARLRSISVSTVQTHIKNLYRKLAVSSRTEAVYEAKQMGI | -1.59 |

| Sequence | soluble fraction (log2) |
| --- | --- |
| HMDADRLSPREREMLQFIARGQSNKEIARALELAESTVKIHVQNMLRKLNLSSRVQAAVFAVENGLG | -0.109 |
| HMQSVPELDQQFKIAIENNDFIKLAQLKEQGYHPSKEVMQSLSNTTPNNTIIAVQKIFGLKA | 0.231 |
| HMQISMQNIASVKIDDLSDEQIQEFSTKYTAAGYSFPDVENVAKQKGMPSSEIEKLRQRVLTAQNTQEK | -0.163 |
| HMADKSLLELPGLDGDKVSALVTAGVRNVNDLADLATDELVEKTGFDEKTAADLIIAARAVVY | 0.331 |
| HMLERPLFTPEQYGRFRGKEARIRLSNPVEGRKTLTGSIVEATEERIVVFVEEEEREVTVPFQWIKSGNL | -0.435 |
| HMEPKQIEVPNLVGISSAAARQTLSALGLHAVVKDSIWSETERIDTVLEQNPAGGALIKPEGTVYLRVSR | 0.033 |
| HMPSSAYGPYKNVFLSNSELTKLKNELPTSWEHYINRLSEYMRSTGRQYQSHAATILRWAATDRNS | -0.139 |
| HMEPDEESVRLKEEILSRIDYWHTTMPYMGTRKLAAKLRTEGYAVGRKLVRTYMREMGIHAVYP | -0.132 |
| HMSLREKNKARTRTAILNAARDLAKQGQWDAITTRQIADAAGVSYQTLYNYYPSKASILVEMLL | -1.45 |
| HMGNLIIFYDAQTGSAPLLKAVKTSGATLVYEYKNLHGIAIRPSSKTSIEDAIAYFKKVNGVLSVE | -1.84 |
| HMTEPIESVTTIAGRRIPYRLVRSLRARRMRMTIKESQVTVTLPRGVPLGEAERFLQQNAAWLFKQLDKP | -2.22 |
| HMVKRAYGEYVNVKLTDADLSKLKADFPADWQERIERLSTYMASTGKTYKNHLATIRNWARRDAERVSA | 0.22 |
| HMKSTELSIIEALRVLGLKHGASQDSIKKSYRRLVKQHHPDLGGSADSFRKVNEAYQLLIMN | -0.425 |
| HMQYTTDEVRERVLSVLNQLLLRWIVREGKDMFNIQANAVEISEGIKGELNTELEKIGLAATGFQIDSV | -0.52 |
| HMEVPQKTLEILEPWRGRKGFLIPVLQAVQHEFGYVPKEAIETVSREMKMPTAEIYGVVTFYAQFH | -0.493 |
| HMGIAEAKRVIVRTLHDVLGPEADFLTEKIDVAQTAAELRVHAEKYRDMLVDMGKPKKSAAFWEAFEAALP | -0.0544 |
| HMEFPYISGVDVGTISNKEFARFETTKASDIVIALDKSGIPFSARFGDSEIVLTYDGSYKEEVEEIIAKV | 0.0138 |
| HMDEPGTGFKWREDVLLRVMEANGIDTSHRDDFVRHAVKFDNDDNLYLKKAEIEDAAAAWVSEHS | 0.0272 |
| HMLKAKKIPVSDLEKFKGIVAEDVVSKAKALILPRGSNLSWLSNVAKKNLIAKLKAEGIEYISVYSS | 0.134 |
| HMLAQISDEGAIGAVVARVLDAHPNEVARYHAGEEKVAKFLMGAAMRELRGKGDPAVVQRLLSEGLDARRV | 0.119 |
| HMKKTVTDSVELLTFLKDIFTNTSTNKLRKMLTTGRVTVNNIVIHKAKHILVQNDVVEIGDK | -1.86 |
| HMHAPIAELKKVFKEEFADQEVTVRQLAGSVLLSGNVKTAELRENLESVAKQFFPRVINNLKLI | -0.000214 |
| HMLSTGIIIGDNVALRKTASSNGGIITRLDEGTVVKILASNVNAEWYQVEAGTKTGYVNRLYVNID | -0.293 |
| HMAAQLAHVPAVTGRPLAEAQRILADNRLNAQVTQQPVAEPKLDGVVIAQKITEGTRTMRGATVPLIVGKY | 0.128 |
| HMQISDSSLIAKTVATVILENPEAVSDYLGGKHSVVRFMVGQIMKKTQGKANPKMATEMLETALNDL | -1.13 |
